Source: the nanobody polyreactivity screen of Harvey et al. (2022)

test: yeast display, Sf9 membrane polyspecificity reagent, FACS + sequencing; frameworks hold sequencing errors
Summary of the method: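 Synthetic nanobody libraries on Saccharomyces cerevisiae BJ5465 were galactose-induced for 36–48 hours, stained 1 hour at 4 °C with 10% biotinylated, detergent-solubilized Sf9 membrane reagent and enriched on streptavidin microbeads. FACS then separated cells into low and high (top ~1%) gates by anti-HA (expression) and streptavidin (reagent binding) fluorescence. Genes were colony-PCR amplified, MiSeq 2 × 250 sequenced and CDR-length filtered. A clone's polyreactivity label is that of its gate of origin.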

| Sequence | polyreactivity (PSR sort gate) |
| --- | --- |
| QVQLVESGGRLVQAGGSLRLSCAASGRTFGYYAKGLSRQAQGKEREFVAAISFRTTSTYYADSVKGRFTISRDNAKNTVYLQMISLKPEDTAVYYCNVVVKGAWDYYPYDYWGQGPQVTVSS | high polyreactivity |
| QVQLVESGGRLVQAGGSLRLSCAASGRTFIGYARGWYRQAPGKERELVAGISWSGGSTYYADSVKGRFTISRDNAKNTVYLQMNSLKPEDTAVYYCAARGRWSTEYGYWGQGTQVTVSS | low polyreactivity |
| QVQLVESGGRLVQAGGSLRLSCAASGRTFWFNDMGWYRQAPGKVRQLVAAISDTDGSTYYADSVKGRFTISRDNAKNSVYLQMNSLKPVDTAVYYCAPEAYYGYLYAYDYWGQGTQVTVSS | low polyreactivity |
| QVQLVESGGRLVQAGGSLRLSCAASGRTFYIYAMGWYRQAPGKERELVADISWSGGSTYYADSVKGRFTISRDNAKNTVYLQMNSLKPEDTAVYYCAADLYVYPNWYLYYYWGQGTQVTVSS | high polyreactivity |
| QVQLVESGGRLVQAGGSLRLSCAASGSIFAVNAMGWYRQAPGKERELVAAIDWSDGITYYADSVKGRFTISRDNAKNTVYLKMNSLKPEDTALNYCAADATAYGWYVEQFSFYDNDYWGQGTQVTVSS | high polyreactivity |
| QVQLVESGGRLVQAGGSLRLSCAASGSIFDNYVMGWYRQAPGKERELVAAINSSGGSTYYADSVKGRFTISRDNAKNTVYLQMNSLKPEDTAVYYCIATDGITPYDLTDIEFDYWGQGTQVTVSS | low polyreactivity |
| QVQLVESGGRLVQAGGSLRLSCAASGSIFLAYDMGWYRQAPGKERELVAGITSVGTTYYADSVKGRFTISRDNAKNTVYFQMNSLKPEDTAVYYCAAQLYIRNHFRYASTAAYDMGYWGQGTQVTVSS | low polyreactivity |
| QVQLVESGGRLVQAGGSLRLSCAASGSIFYYYAKGLYRKAPVTARELVAAISTRGGRTYYADSVKGRFTISRDNAKTTVYLQMNSLKPEDTAVYYCNVPYYLPSYLSGYDYWGQGTQVTVSS | low polyreactivity |
| QVQLVESGGRLVQAGGSLRLSCAASGSIINVNTMGWYRQAPGKERELVAAISSGGRTYYADSVKGRFTISRDNAKNTVYLQMNSLKPEDTAVYYCNTVLGVYDYDYWGQGTQVTVSS | low polyreactivity |
| QVQLVESGGRLVQAGGSLRLSCAASGSTFAVYAMGWYRQAPGKERELVAAINRSGDSTYYADSVKGRFTISRDNAKNTVYLQMNSLKPEDTAVYYCAVSAWTRSHALYYWGQGTQVTVSS | high polyreactivity |
| QVQLVESGGRLVQAGGSLRLSCAASGSTFGSYTMGWYRQAPGKERELVAAINWSGGNTYYADSVKGRFTISRDYAKNTVYLQMNSLKPEDTAVYFCAAAYYIYGFEGDYWGHGTQVTVSS | low polyreactivity |
| QVQLVESGGRLVQAGGSLRLSCAASGSTFSYYDMGGYRQAPGKEMELVADISWSGGSTYYADSVKGRFTISRDNAKNTVYLQMNSLKPEDTAVYYCAARGYVRWYNRYDYWGQGTQVTVSS | low polyreactivity |
| QVQLVESGGRLVQAGGSLRLSCAASGSTINKYAMGWYRQAPGKERELVAAISRSGGSTNYADSVKGRFTISRDNAKNTVYLQMNSLKPEDNAVYYCNRTRYRSFHYDYWGQGTQVTVSS | high polyreactivity |
| QVQLVESGGRLVQAGGSLRLSCAASGYIFERNAMGWYRPAPGKERELVAAITDDGDDTYYADSVKGRFTISRDNEKNTVYLQLYSLKPEDTAVYYCAKDLYYGDYYYWGQGTQVTVSS | low polyreactivity |
| QVQLVESGGRLVQAGGSLRLSCAPSGRTFRWYAMGWYRQSPGKERELVAAISRSGGSTYYADSVKGRFTISRDNAKYTVFLQMNILKPEDTAVYYCANVRYDFKLDYWGQGTQVTVSS | high polyreactivity |
| QVQLVESGGRLVQAGGSLRLSCDASGRTFGKYALGWYRQAPGKEREFVATITRSGDSTYYADSVKGRFTISRDNAKNTVYLQMNSLKPEDTAVYNCAKDTYGVLSYFQVSREYWGQGTQVTVSS | low polyreactivity |
| QVQLVESGGRLVQAGGSLRLSGAASGRTFAKYAMGWYRQAPGKERELVAAINSSGDSTYYADSVKGRFTISRDNAKNTVYLQMNSLKPEDTAVYYCATRYRSSQWYSPYKYDYWGQGTQVTVSS | low polyreactivity |
| QVQLVESGGRLVQAGGSLRLSSAASGRIFASNAMGWYRQAPGKERELVAAIDQGGGSTYYADSVKGRFTISRDNAKNTVYLQMNSLKPEDTAVYYCAADYITAYPRLYNYWGQGTQVTVSS | low polyreactivity |
| QVQLVESGGRLVQAGRSLRLSCAASGSIFHDYAMGWYRQAPGKERELVAVISTSGGSTYYADSVKGRFTISRDNAKNTVYCQMNRLKPEDTAFYYCNARTVGPYPSHAALEYDSWGQGTQVTVSS | low polyreactivity |
| QVQLVESGGRLVQAVASHRLSCAASGSIFRKYALGCYRQAPGKERELVAAIRSSGGSTYYADSVKGRFTISRDNAKNTVYLQMISLIPEDTAVYYCAARYYRPSRYDYWGQGTQVTVSS | high polyreactivity |
| QVQLVESGGRLVQSGGSLRLSCAASGFIFSYNAMGLYRQAPGKERELVASIRTRGGSTYYADSVKGRFTISRDNAKNSVYLQMNSLKPEDTAVYYCAARPFQRRYDYWGQGTQVTVST | low polyreactivity |

| Sequence | polyreactivity (PSR sort gate) |
| --- | --- |
| QVQLVESGGRLVQSGGSLRLSCAASGNTFIPNAMGWYRQAPGKERELVAAIRASGGSTYYADSVKGRFTISRDNAKNTVYLQMNSLKPEDTAVYYCNADIWYKTYDYWGQGTQVTVSS | low polyreactivity |
| QVQLVESGGRLVQSGGSLRLSCAPSGSIFLRNAMGWYRQAPGKEREFVASITWNGASTSYADSVKGRFTISRDYAMNTVYLQMNSLKPEDTAVYFCAAVTVQDSNLKYGYWGQGTQVTVSS | low polyreactivity |
| QVQLVESGGRVVQAGGILRLRCAGSGSILVHYAMGWYRQAPGKDRELVAAISRGGSTNYADSVKGRFTISRDNAKNTVYLQMNSLKPEDTAVYYCDARRPWGEYYWGQGTQVTVSS | low polyreactivity |
| QVQLVESGGVLDQAGGSLRLRCAASGSTYYRNAMGWYRQAPGKERELVATINRGGSTYYADSVKWRFTISRDNAKNTVYLQMNSLKPEDPAVYYWAKDPYYAGRYRGDYWGQGTQVTVSS | high polyreactivity |
| QVQLVESGGVLFQAGGSLSLSCAASGLTFPRYAMGWYRQAPGKESELDAAISYRGSRTYYADSVKGRFTISRDNAKNTVYLQMNSLKPEDTAVYYCNKVRPGYGVTYLVGYWGQGTQVTVSS | high polyreactivity |
| QVQLVESGGVLLQAGASLRLSCAASGSIIRSYAMGWYRQAPGKERELVASISRRGGSTYYADSVKGRFTISRDNPKNSVFLQMNSLNPVDTADYYCGAVTTSKFNFWGQGTQVTVSS | low polyreactivity |
| QVQLVESGGVLLQAGGSLRLSCAASGTIQYIKTMGWYRQAPGKERELVAAITYSGGSTYYADSVKGRFTISRDNAKNTVYLQRNSLKPVVTAVYYCAGDGYYGGYNYWGQGTQVTVSS | low polyreactivity |
| QVQLVESGGVLVQAGGCLRLSCAASGSIFSVNTMGWYRQAPGKERELVATIRTGDSTNYADSVKGRFTISRDNAKNTVYLQMNSLKPEDTAVYYCAAEWSSLNFEYWGQGSQVTVSS | low polyreactivity |
| QVQLVESGGVLVQAGGRLRLSCAASVFGRYAMGWYRQAPGKEREMVARISSSCGSTHYADSVKGRFTISRDNAKNTVYLEMNSLKPEDTAVYYCAARSYDTYWWYGYWGQGTQVTVSS | high polyreactivity |
| QVQLVESGGVLVQAGGSIRLSCAASGRIIYKNAMGWYRQAPGKERELVAAITSSGGSTYYADSVKGRFTISRDNAKITVYFQMNSLKPEDTAVYYCAAYAYGRFGKLNYWGQGTQVTVSS | low polyreactivity |
| QVQLVESGGVLVQAGGSLPLSCAASGSIFGSYAMGWSRQAPGKERELVAAIRWSGGSTRYADSVKGRFTISRDIAKNRVYLHMNSLKPEDTAVYYCAAVWRYLGYTSMDYWGQGTQVTVSS | low polyreactivity |
| QVQLVESGGVLVQAGGSLRFSCAASGFFFSSNAIGWYRQAPGKERELVAAISRSVGSTYYADSVKGRFTISRDNAKNTVYLQMNSLKPEDTAVYYCAARIGSYRKYRYDYWGQGTQVTVSS | high polyreactivity |
| QVQLVESGGVLVQAGGSLRLSCAASEIIFTFYAMAWYRQAPGKEMELVAAITSSGGRTYYADSVKGRFTISRDNAKNTVYLQMNSLKPEDTAVYYCAARLPGYVRKYDYWGQGTQVTVSW | high polyreactivity |
| QVQLVESGGVLVQAGGSLRLSCAASGNAMGWYRQAPGKERELVAAITRRGGSTYYADSVKGRFTISRDNAKNTVYLQINSLIPEDTAVYYCAADNPSYNLWYGYWGQGTQVTVSS | low polyreactivity |
| QVQLVESGGVLVQAGGSLRLSCAASGRIFPGYVMGWYRQAHGKERELVAAITRGGSTYYADSVKGRFTISRDNAKNTVYLQMNSLKPEDTAVYYCAAKHSHIHYNYWGQGTQVTVSS | low polyreactivity |
| QVQLVESGGVLVQAGGSLRLSCAASGRIFPSYDMGWYRQAPAKERELVDTISTRGDSTYYADSVKGRFTISRDNAKNTVYLQMNSQKPEDTAVYYCAAERPFWEYDYWGQGTQVTVSS | low polyreactivity |
| QVQLVESGGVLVQAGGSLRLSCAASGRIFRANTMGWYRQAPGKEMELVANISKNGGRTYYADSVKGRFTISRDNAKNTVYLQMNSLKPEDTAVYYFNAEWRGWRFLEYGSYIYQSGYWGQGTQVTVSS | high polyreactivity |
| QVQLVESGGVLVQAGGSLRLSCAASGRIFRYNTMGWDRQAPGKERELVATITRGSSTNYADSVKGRFTISRDNAKNTVYLQMNSLKPEDTAVYYCAASVWKWHSYLGRYSYIGYDYWGQGTQVTVSS | high polyreactivity |
| QVQLVESGGVLVQAGGSLRLSCAASGRIIDLNAMGWYREAPGKQRDFVAGITDGGSTYYADSVKGRFTISRDNAKNTVYLQMNSLKPEDTAVDYCAADVYDYLSEFQAFVEEAGYYWGQGTQVTVSS | low polyreactivity |
| QVQLVESGGVLVQAGGSLRLSCAASGRTFHDYAMGWYRQAPGKERELVASISSGGSTYYADSVKGRFTISRDNAKNTDYLQMNSLKPEDTAVYYCAAYYYYTLYYRYDYWGQGTQVNVSS | low polyreactivity |
